Measured values as given in IntAct's records for PubMed 35512704.

B1: Speckle-type POZ protein (Homo sapiens), O43791 (parent)
chain: MSRVPSPPPPAEMSSGPVAESWCYTQIKVVKFSYMWTINNFSFCREEMGEVIKSSTFSSGANDKLKWCLRVNPKGLDEESKDYLSLYLLLVSCPKSEVRAKFKFSILNAKGEETKAMESQRAYRFVQGKDWGFKKFIRRDFLLDEANGLLPDDKLTLFCEVSVVQDSVNISGQNTMNMVKVPECRLADELGGLWENSRFTDCCLCVAGQEFQAHKAILAARSPVFSAMFEHEMEESKKNRVEINDVEPEVFKEMMCFIYTGKAPNLDKMADDLLAAADKYALERLKVMCEDALCSNLSVENAAEILILADLHSADQLKTQAVDFINYHASDVLETSGWKSMVVSHPHLVAEAYRSLASAQCPFLGPPRKRLKQS
partner: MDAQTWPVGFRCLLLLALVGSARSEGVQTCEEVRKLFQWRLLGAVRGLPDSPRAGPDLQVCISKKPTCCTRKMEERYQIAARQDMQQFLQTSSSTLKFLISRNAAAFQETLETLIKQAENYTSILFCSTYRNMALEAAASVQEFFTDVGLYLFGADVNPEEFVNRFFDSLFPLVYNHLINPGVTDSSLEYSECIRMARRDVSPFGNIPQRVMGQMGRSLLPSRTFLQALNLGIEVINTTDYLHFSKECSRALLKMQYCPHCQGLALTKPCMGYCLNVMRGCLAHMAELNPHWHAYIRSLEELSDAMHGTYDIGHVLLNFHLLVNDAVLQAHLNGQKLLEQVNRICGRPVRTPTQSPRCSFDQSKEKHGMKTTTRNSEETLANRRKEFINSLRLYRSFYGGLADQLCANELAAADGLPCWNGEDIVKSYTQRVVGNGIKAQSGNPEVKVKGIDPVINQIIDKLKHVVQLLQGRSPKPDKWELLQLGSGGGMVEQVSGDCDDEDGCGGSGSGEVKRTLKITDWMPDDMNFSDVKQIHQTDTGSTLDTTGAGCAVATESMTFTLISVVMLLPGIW
B2: Speckle-type POZ protein (Homo sapiens), O43791 (parent)
chain: B1 chain
partner: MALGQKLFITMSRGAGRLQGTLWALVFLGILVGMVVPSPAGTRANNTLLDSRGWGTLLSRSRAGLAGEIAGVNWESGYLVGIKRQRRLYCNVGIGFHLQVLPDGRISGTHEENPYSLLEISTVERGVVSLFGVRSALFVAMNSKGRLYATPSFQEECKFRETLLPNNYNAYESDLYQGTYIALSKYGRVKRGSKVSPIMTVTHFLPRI
B3: Speckle-type POZ protein (Homo sapiens), O43791 (parent)
chain: B1 chain
partner: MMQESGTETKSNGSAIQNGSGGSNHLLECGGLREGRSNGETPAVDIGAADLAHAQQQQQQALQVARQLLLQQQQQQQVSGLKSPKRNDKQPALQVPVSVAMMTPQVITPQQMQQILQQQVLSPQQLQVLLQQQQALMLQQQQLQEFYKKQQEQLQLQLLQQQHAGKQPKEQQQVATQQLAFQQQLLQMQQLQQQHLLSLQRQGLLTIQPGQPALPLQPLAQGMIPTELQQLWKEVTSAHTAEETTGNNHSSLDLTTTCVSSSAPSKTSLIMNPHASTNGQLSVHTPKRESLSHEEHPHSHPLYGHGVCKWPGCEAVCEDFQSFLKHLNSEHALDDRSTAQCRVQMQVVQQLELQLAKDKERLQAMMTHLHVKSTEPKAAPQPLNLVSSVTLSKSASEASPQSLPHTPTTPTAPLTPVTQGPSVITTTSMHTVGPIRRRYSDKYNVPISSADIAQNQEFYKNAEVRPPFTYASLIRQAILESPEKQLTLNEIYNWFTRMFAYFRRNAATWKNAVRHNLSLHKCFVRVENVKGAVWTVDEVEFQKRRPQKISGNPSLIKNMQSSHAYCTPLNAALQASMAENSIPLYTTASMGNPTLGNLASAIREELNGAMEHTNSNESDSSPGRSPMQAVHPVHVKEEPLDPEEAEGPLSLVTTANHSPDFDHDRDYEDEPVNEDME

Variants of: B1
Conditions: with gpc5_human GPC5, P78333

Q: With MSRVPSPPPPAEMSSGPVAESWCYTQIKVVKFSYMWTINNFSFCREEMGEVIKSSTFSSGANDKLKWCLRVNPKGLDEESKDYLSLYLLLVSCPKSEVRAKFKFSILNAKGEETKAMESQRAYRFVQGKDWGLKKFIRRDFLLDEANGLLPDDKLTLFCEVSVVQDSVNISGQNTMNMVKVPECRLADELGGLWENSRFTDCCLCVAGQEFQAHKAILAARSPVFSAMFEHEMEESKKNRVEINDVEPEVFKEMMCFIYTGKAPNLDKMADDLLAAADKYALERLKVMCEDALCSNLSVENAAEILILADLHSADQLKTQAVDFINYHASDVLETSGWKSMVVSHPHLVAEAYRSLASAQCPFLGPPRKRLKQS [F133L] as the variant, how does the “effect of a mutation on the interaction” value read?
A: with no effect

Variants of: B1
Conditions: with gpc5_human GPC5, P78333
Remark: another data set of the same source

Q: With MSRVPSPPPPAEMSSGPVAESWCYTQIKVVKFSYMWTINNFSFCREEMGEVIKSSTFSSGANDKLKWCLRVNPKGLDEESKDYLSLYLLLVSCPKSEVRAKFKFSILNAKGEETKAMESQRAYRFVQGKDWGVKKFIRRDFLLDEANGLLPDDKLTLFCEVSVVQDSVNISGQNTMNMVKVPECRLADELGGLWENSRFTDCCLCVAGQEFQAHKAILAARSPVFSAMFEHEMEESKKNRVEINDVEPEVFKEMMCFIYTGKAPNLDKMADDLLAAADKYALERLKVMCEDALCSNLSVENAAEILILADLHSADQLKTQAVDFINYHASDVLETSGWKSMVVSHPHLVAEAYRSLASAQCPFLGPPRKRLKQS [F133V] as the variant, how does the “effect of a mutation on the interaction” value read?
A: with no effect

Variants of: B1
Conditions: with gpc5_human GPC5, P78333
Remark: another data set of the same source

Q: With MSRVPSPPPPAEMSSGPVAESWCYTQIKVVKFSYMWTINNFSFCREEMGEVIKSSTFSSGANDKLKWCLRVNPKGLDEESKDYLSLYLLLVSCPKSEVRAKCKFSILNAKGEETKAMESQRAYRFVQGKDWGFKKFIRRDFLLDEANGLLPDDKLTLFCEVSVVQDSVNISGQNTMNMVKVPECRLADELGGLWENSRFTDCCLCVAGQEFQAHKAILAARSPVFSAMFEHEMEESKKNRVEINDVEPEVFKEMMCFIYTGKAPNLDKMADDLLAAADKYALERLKVMCEDALCSNLSVENAAEILILADLHSADQLKTQAVDFINYHASDVLETSGWKSMVVSHPHLVAEAYRSLASAQCPFLGPPRKRLKQS [F102C] as the variant, how does the “effect of a mutation on the interaction” value read?
A: with no effect

Variants of: B1
Conditions: with gpc5_human GPC5, P78333
Remark: another data set of the same source

Q: For MSRVPSPPPPAEMSSGPVAESWCYTQIKVVKFSYMWTINNFSFCREEMGEVIKSSTFSSGANDKLKWCLRVNPKGLDEESKDYLSLCLLLVSCPKSEVRAKFKFSILNAKGEETKAMESQRAYRFVQGKDWGFKKFIRRDFLLDEANGLLPDDKLTLFCEVSVVQDSVNISGQNTMNMVKVPECRLADELGGLWENSRFTDCCLCVAGQEFQAHKAILAARSPVFSAMFEHEMEESKKNRVEINDVEPEVFKEMMCFIYTGKAPNLDKMADDLLAAADKYALERLKVMCEDALCSNLSVENAAEILILADLHSADQLKTQAVDFINYHASDVLETSGWKSMVVSHPHLVAEAYRSLASAQCPFLGPPRKRLKQS [Y87C], which “effect of a mutation on the interaction” value is on record?
A: with no effect

Variants of: B2
Conditions: with fgf6_human FGF6, P10767

Q: With MSRVPSPPPPAEMSSGPVAESWCYTQIKVVKFSYMWTINNFSFCREEMGEVIKSSTFSSGANDKLKWCLRVNPKGLDEESKDYLSLYLLLVSCPKSEVRAKFKFSILNAKGEETKAMESQRAYRFVQGKDWGVKKFIRRDFLLDEANGLLPDDKLTLFCEVSVVQDSVNISGQNTMNMVKVPECRLADELGGLWENSRFTDCCLCVAGQEFQAHKAILAARSPVFSAMFEHEMEESKKNRVEINDVEPEVFKEMMCFIYTGKAPNLDKMADDLLAAADKYALERLKVMCEDALCSNLSVENAAEILILADLHSADQLKTQAVDFINYHASDVLETSGWKSMVVSHPHLVAEAYRSLASAQCPFLGPPRKRLKQS [F133V] as the variant, how does the “effect of a mutation on the interaction” value read?
A: with no effect

Variants of: B2
Conditions: with fgf6_human FGF6, P10767
Remark: another data set of the same source

Q: How did the “effect of a mutation on the interaction” value turn out when MSRVPSPPPPAEMSSGPVAESWCYTQIKVVKFSYMWTINNFSFCREEMGEVIKSSTFSSGANDKLKWCLRVNPKGLDEESKDYLSLYLLLVSCPKSEVRAKFKFSILNAKGEETKAMESQRAYRFVQGKDWGLKKFIRRDFLLDEANGLLPDDKLTLFCEVSVVQDSVNISGQNTMNMVKVPECRLADELGGLWENSRFTDCCLCVAGQEFQAHKAILAARSPVFSAMFEHEMEESKKNRVEINDVEPEVFKEMMCFIYTGKAPNLDKMADDLLAAADKYALERLKVMCEDALCSNLSVENAAEILILADLHSADQLKTQAVDFINYHASDVLETSGWKSMVVSHPHLVAEAYRSLASAQCPFLGPPRKRLKQS [F133L] was run?
A: with no effect

Variants of: B2
Conditions: with fgf6_human FGF6, P10767
Remark: another data set of the same source

Q: For MSRVPSPPPPAEMSSGPVAESWCYTQIKVVKFSYMWTINNFSFCREEMGEVIKSSTFSSGANDKLKWCLRVNPKGLDEESKDYLSLCLLLVSCPKSEVRAKFKFSILNAKGEETKAMESQRAYRFVQGKDWGFKKFIRRDFLLDEANGLLPDDKLTLFCEVSVVQDSVNISGQNTMNMVKVPECRLADELGGLWENSRFTDCCLCVAGQEFQAHKAILAARSPVFSAMFEHEMEESKKNRVEINDVEPEVFKEMMCFIYTGKAPNLDKMADDLLAAADKYALERLKVMCEDALCSNLSVENAAEILILADLHSADQLKTQAVDFINYHASDVLETSGWKSMVVSHPHLVAEAYRSLASAQCPFLGPPRKRLKQS [Y87C], which “effect of a mutation on the interaction” value is on record?
A: with no effect

Variants of: B3
Conditions: with foxp1_human FOXP1, Q9H334

Q: With MSRVPSPPPPAEMSSGPVAESWCYTQIKVVKFSYMWTINNFSFCREEMGEVIKSSTFSSGANDKLKWCLRVNPKGLDEESKDYLSLYLLLVSCPKSEVRAKCKFSILNAKGEETKAMESQRAYRFVQGKDWGFKKFIRRDFLLDEANGLLPDDKLTLFCEVSVVQDSVNISGQNTMNMVKVPECRLADELGGLWENSRFTDCCLCVAGQEFQAHKAILAARSPVFSAMFEHEMEESKKNRVEINDVEPEVFKEMMCFIYTGKAPNLDKMADDLLAAADKYALERLKVMCEDALCSNLSVENAAEILILADLHSADQLKTQAVDFINYHASDVLETSGWKSMVVSHPHLVAEAYRSLASAQCPFLGPPRKRLKQS [F102C] as the variant, how does the “effect of a mutation on the interaction” value read?
A: with no effect
